Experiment [1] addresses human PD-1 (NM_005018.2) over-expressed on cells (human, UniProt Q15116 25-288). Briefly: cell-based or functional assay.
Experiment [2] concerns the target T1, M2-1.
T1 construct: also called PD1 mutant M2-1
Briefly: ELISA, 1 ug/ml. (In an ELISA, binding on a coated surface is turned into a signal by an enzyme label.)

For experiment [3], the target named is T2, M2-2.
T2 construct: also called PD1 mutant M2-2
In words: ELISA, 1 ug/ml.

Experiment [4] deals with T3, M3.
T3 construct: also called PD1 mutant M3
Briefly: ELISA, 1 ug/ml.

The target of experiment [5] is T4, M4.
T4 construct: also called PD1 mutant M4
Briefly: ELISA, 1 ug/ml.

The target in experiment [6] is T5, M11.
T5 construct: also called PD1 mutant M11
Briefly: ELISA, 1 ug/ml.

Experiment [7] has as its target T6, M5.
T6 construct: also called PD1 mutant M5
Briefly: ELISA, 1 ug/ml.

Experiment [8] concerns the target T7, M5-1.
T7 construct: also called PD1 mutant M5-1
In words: ELISA, 1 ug/ml.

In experiment [9] the target is T8, M5-2.
T8 construct: also called PD1 mutant M5-2
In words: ELISA, 1 ug/ml.

Experiment [10] has as its target T9, M6.
T9 construct: also called PD1 mutant M6
In words: ELISA, 1 ug/ml.

Experiment [11] addresses T10, M12.
T10 construct: also called PD1 mutant M12
Briefly: ELISA, 1 ug/ml.

The target of experiment [12] is T11, M13.
T11 construct: also called PD1 mutant M13
In words: ELISA, 1 ug/ml.

Experiment [13] has as its target T12, M14.
T12 construct: also called PD1 mutant M14
In words: ELISA, 1 ug/ml.

The target of experiment [14] is T13, M7.
T13 construct: also called PD1 mutant M7
Briefly: ELISA, 1 ug/ml.

For experiment [15], the target named is T14, M7-1.
T14 construct: also called PD1 mutant M7-1
In words: ELISA, 1 ug/ml.

The target in experiment [16] is T15, M7-2.
T15 construct: also called PD1 mutant M7-2
In words: ELISA, 1 ug/ml.

Experiment [17] has as its target T16, M8.
T16 construct: also called PD1 mutant M8
In words: ELISA, 1 ug/ml.

In experiment [18] the target is T17, M9.
T17 construct: also called PD1 mutant M9
Briefly: ELISA, 1 ug/ml.

Experiment [19] has as its target T18, M10.
T18 construct: also called PD1 mutant M10
Briefly: ELISA, 1 ug/ml.

The target in experiment [20] is T19, ITGA6-Fc.
T19 construct: Fc fusion
T19 sequence (P23229 whole entry, species assumed, looked up): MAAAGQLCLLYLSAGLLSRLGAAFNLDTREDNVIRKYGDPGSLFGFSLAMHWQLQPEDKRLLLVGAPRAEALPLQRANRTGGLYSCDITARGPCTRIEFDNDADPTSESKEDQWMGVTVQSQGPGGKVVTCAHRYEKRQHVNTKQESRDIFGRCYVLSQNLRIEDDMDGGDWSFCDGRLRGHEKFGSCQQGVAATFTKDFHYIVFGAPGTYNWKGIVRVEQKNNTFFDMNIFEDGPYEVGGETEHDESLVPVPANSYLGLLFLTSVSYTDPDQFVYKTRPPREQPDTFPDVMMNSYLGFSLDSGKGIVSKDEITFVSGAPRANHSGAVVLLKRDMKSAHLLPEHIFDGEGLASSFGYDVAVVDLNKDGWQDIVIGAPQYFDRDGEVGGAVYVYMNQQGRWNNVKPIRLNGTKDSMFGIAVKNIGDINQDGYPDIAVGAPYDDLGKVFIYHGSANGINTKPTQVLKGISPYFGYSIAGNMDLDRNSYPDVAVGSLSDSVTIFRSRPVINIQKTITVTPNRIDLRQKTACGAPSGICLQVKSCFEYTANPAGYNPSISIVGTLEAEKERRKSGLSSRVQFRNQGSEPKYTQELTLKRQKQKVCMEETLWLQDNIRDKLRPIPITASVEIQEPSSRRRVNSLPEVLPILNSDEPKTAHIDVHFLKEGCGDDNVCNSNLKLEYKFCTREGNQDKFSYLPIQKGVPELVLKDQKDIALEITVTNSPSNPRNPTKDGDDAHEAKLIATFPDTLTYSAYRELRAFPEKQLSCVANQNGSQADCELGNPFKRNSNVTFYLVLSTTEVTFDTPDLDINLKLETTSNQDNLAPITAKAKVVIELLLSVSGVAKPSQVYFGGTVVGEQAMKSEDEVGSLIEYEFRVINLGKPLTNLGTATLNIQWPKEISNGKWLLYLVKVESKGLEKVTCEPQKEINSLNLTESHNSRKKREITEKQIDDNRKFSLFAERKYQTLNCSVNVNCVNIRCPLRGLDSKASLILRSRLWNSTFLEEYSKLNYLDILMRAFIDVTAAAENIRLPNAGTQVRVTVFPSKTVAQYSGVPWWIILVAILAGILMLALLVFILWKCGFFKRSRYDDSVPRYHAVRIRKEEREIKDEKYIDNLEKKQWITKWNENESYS
In words: ELISA, 1 ug/ml.

Experiment [21] has as its target T20, M1.
T20 construct: also called PD1 mutant M1
In words: ELISA, 1 ug/ml.

Experiment [22] has as its target T21, M1-1.
T21 construct: also called PD1 mutant M1-1
In words: ELISA, 1 ug/ml.

The target of experiment [23] is T22, M1-2.
T22 construct: also called PD1 mutant M1-2
Briefly: ELISA, 1 ug/ml.

In experiment [24] the target is T23, PD1-his (Catalog Number 10377-H08H, Sino Biological Inc.) (UniProt Q15116 25-167).
T23 construct: bought protein; not shown: His tag
T23 sequence (Q15116 25-167 limits assumed): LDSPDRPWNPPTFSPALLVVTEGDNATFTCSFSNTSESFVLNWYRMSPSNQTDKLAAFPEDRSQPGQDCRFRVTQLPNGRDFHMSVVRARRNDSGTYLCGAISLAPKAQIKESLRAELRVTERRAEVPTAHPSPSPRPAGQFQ
In words: ELISA, 1 ug/ml.

Sequence of human PD-1 (NM_005018.2) over-expressed on cells (Q15116 25-288): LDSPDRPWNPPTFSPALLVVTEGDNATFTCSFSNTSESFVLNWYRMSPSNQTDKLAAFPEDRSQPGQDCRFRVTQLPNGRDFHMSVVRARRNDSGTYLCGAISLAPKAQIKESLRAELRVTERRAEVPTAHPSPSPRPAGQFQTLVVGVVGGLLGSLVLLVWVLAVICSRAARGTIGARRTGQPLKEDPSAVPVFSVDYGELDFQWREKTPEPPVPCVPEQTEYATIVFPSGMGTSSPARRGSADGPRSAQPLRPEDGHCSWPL

B1: PD1-52E8 (antibody, V domains shown)
VH: QVQLVQSGGNLVQPGRSLRLSCAASGFTFDDYAMHWVRQAPGKGLEWVSGISWNSGTPGYADSVQGRFTISRDNAKNSLYLQMNSLRAEDTAVYYCARGHNYLDSSYYDYWGQGTLVTVSS
VL: SYELTQPLSLSVAPGQTARITCSGDALSKEYSYWYQQKPGQAPVLVMYKDSERPSGIPERFSGSSSGTTVTLTISGVQAEDEADYYCQSVDSSDTSVVFGGGTKLTVL
notes: scFv-phage in the screening ELISA; whole IgG in the other assays
Take B1: the “EC50 [nM], PD1/PD-L1 blockade bioassay” value in [1] turned out to be 8.43 nM. Moreover, the OD490 amounted to 2.9 in [2]; 3.4 in [3]; 1.5 in [4]; 3.7 in [5]; 0.2 in [6]; 0.5 in experiment [7]. Also, the OD490 stood at 0.3 in experiment [8]; 3.5 in experiment [9]; 3.4 in experiment [10]; 3.2 in experiment [11]; 3.9 in experiment [12]; 2.6 in experiment [13]. The OD490 amounted to 1 in [14]; 1.1 in experiment [15]; 3.9 in [16]; 0.6 in experiment [17]; 2.4 in experiment [18]; 1 in [19]. For the same molecule, the OD490 was 0.1 in experiment [20]; 1.4 in [21]; 1.5 in experiment [22]; 3.6 in experiment [23]; 0.4 in [24].

B2: PD1-41C9 (antibody, V domains shown)
VH: QMQLVESGGGVVQPGRSLRLSCAASGFTFSSYAMHWVRQAPGKGLEWVAVISYDGSNKYYADSVKGRFTISRDNSKNTLYLQMNRLRSEDTAVYYCTTTTFDSWGQGTLITVSS
VL: DIVMTQTPLSLPVTPGEAASISCRSSQSLLDSEDGNTYLDWYLQKPGQSPQLLIYTLSHRASGVPDRFSGSGSGTDFTLKISRVAAEDVGLYYCLQRMGFPYTFGQGTKLDIK
notes: as for B1
As to B2, in experiment [1], the “EC50 [nM], PD1/PD-L1 blockade bioassay” value stood at 3.91 nM. Moreover, the OD490 came out at 3.4 in [2]; 3.2 in [3]; 2.3 in experiment [4]; 3.2 in experiment [5]; 0.9 in experiment [6]; 2.3 in [7]. In addition, the OD490 worked out at 2.8 in [8]; 3.6 in experiment [9]; 3.6 in [10]; 3.1 in [11]; 3.6 in experiment [12]; 3.5 in [13]. The OD490 in experiment [14] was 0.8; in experiment [15] it was 1.2; in experiment [16] it was 3; in experiment [17], 2.5; in experiment [18], 3.3; in [19] it was 3.4. Moreover, the OD490 came out at 0.5 in experiment [20]; 3.2 in experiment [21]; 3.1 in [22]; 3.2 in [23]; 3.2 in experiment [24].

B3: PD1-49A2 (antibody, V domains shown)
VH: QVQLVESGGGVVQPGRSLRLSCAASGFTFSSYAMHWVRQAPGKGLEWVAVISYDGSNKYYADSVKGRFTISRDNPKNTLYLQMNSLRAEDTAVYYCTTTTFDSWGRGTLVTVSS
VL: DIVMTQSPLSLPVTPGEPASISCRSSQSLFDSDDGNTYLDWYLQKPGQSPQLLIYTLSHRASGVPDRFSGSGSGTDFTLKISRVEAEDVGIYYCLQRMGFPYTFGQGTKVEIK
notes: scFv-phage in the screening ELISA; whole IgG in the other assays; also called Parent 49A2
Take B3: in [1], the “EC50 [nM], PD1/PD-L1 blockade bioassay” value turned out to be 3.78 nM. For the same molecule, the OD490 is 3.7 in experiment [2]; 3.8 in experiment [3]; 3.4 in experiment [4]; 3.9 in experiment [5]; 0.4 in experiment [6]; 1.2 in experiment [7]. Besides, the OD490 was 0.7 in experiment [8]; 3.8 in [9]; 3.9 in experiment [10]; 3.9 in experiment [11]; 3.9 in [12]; 3.9 in [13]. The OD490 came to 0.4 in experiment [14]; 0.5 in experiment [15]; 2.2 in experiment [16]; 3 in [17]; 3.7 in [18]; 2.6 in experiment [19]. Besides, the OD490 stood at 0.2 in experiment [20]; 3 in experiment [21]; 3.4 in experiment [22]; 3.8 in experiment [23]; 3.6 in experiment [24].

B4: PD1-45D6 (antibody, V domains shown)
VH: QVQLVESGGGVVQPGRSLRLSCAASGFTFSSYAMHWVRQVPGKGLEWVAVISYDGNDKYYADSVKGRFTISRDNSKNTLYLQMNSLRAEDTAVYYCVPTTFEYWGQGSQVTVSS
VL: DIVMTQTPLSLPVTPGEAASISCRSSQSLLDSDDGKTYLDWYLQKPGQSPQLLIYTLSYRASGVPDRFSGSGSGTEFNLRISRVEAEDVGIYYCMQRVEFPFTFGQGTKLDIK
notes: as for B1
As to B4, in [1], the “EC50 [nM], PD1/PD-L1 blockade bioassay” value was 2 nM. In addition, the OD490 in experiment [2] is 3.9; in experiment [3], 3.8; in experiment [4], 3.8; in experiment [5] it was 3.9; in experiment [6], 0.7; in experiment [7], 3.6. The OD490 in [8] came to 3.8; in experiment [9] it was 3.9; in experiment [10], 3.9; in experiment [11], 3.9; in [12] it was 4; in experiment [13], 3.9. Moreover, the OD490 in experiment [14] was determined as 0.5; in experiment [15] it was 1.3; in experiment [16], 4; in experiment [17] it was 3.8; in [18] it was 3.8; in experiment [19], 3.9. Further, the OD490 in experiment [20] stood at 0.5; in experiment [21], 4; in experiment [22], 3.8; in experiment [23], 3.9; in experiment [24], 3.8.

(Values after US20190248900A1 (Y BIOLOGICS, published 2019).)
